In patent publication US20110033462A1 (published 2011):
Like-named read-outs stand apart in the source and are kept apart here.

T1: JEV SA14-14-2 envelope (E) protein on virions (Japanese encephalitis virus strain …, UniProt P0DOH7 295-794)
T1 chain: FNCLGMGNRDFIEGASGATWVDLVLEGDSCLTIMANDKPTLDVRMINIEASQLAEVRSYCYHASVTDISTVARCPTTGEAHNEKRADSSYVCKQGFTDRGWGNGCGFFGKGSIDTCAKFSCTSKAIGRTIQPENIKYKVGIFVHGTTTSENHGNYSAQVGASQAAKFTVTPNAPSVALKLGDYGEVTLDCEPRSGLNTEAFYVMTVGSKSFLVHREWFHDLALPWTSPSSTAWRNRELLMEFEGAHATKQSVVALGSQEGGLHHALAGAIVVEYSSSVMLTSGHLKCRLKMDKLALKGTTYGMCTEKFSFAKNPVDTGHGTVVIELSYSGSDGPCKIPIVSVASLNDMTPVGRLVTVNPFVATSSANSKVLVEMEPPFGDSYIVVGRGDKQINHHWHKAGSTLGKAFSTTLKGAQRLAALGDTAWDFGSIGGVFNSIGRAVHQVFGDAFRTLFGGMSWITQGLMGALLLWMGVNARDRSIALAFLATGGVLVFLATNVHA

T2: Langat virus (LGTV) strain TP 21 virions (Langat virus, strain TP 21, UniProt P29837 281-776)
T2 construct: mature
T2 sequence: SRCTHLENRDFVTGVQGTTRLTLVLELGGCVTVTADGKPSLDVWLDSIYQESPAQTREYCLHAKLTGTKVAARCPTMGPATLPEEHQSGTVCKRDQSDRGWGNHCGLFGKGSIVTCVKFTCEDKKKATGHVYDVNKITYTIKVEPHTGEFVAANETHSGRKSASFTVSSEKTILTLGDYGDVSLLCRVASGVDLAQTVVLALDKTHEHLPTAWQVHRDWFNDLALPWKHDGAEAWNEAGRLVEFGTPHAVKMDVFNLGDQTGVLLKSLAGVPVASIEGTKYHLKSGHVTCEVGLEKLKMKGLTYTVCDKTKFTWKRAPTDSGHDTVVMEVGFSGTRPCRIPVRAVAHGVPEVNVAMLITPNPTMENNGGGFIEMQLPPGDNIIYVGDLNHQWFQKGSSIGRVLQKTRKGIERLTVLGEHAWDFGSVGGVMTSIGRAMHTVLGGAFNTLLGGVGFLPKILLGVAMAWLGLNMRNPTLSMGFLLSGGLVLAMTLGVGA

T3: recombinant JEV N-terminal 80% E protein (Japanese encephalitis virus strain …, UniProt P0DOH7 295-692)
T3 chain: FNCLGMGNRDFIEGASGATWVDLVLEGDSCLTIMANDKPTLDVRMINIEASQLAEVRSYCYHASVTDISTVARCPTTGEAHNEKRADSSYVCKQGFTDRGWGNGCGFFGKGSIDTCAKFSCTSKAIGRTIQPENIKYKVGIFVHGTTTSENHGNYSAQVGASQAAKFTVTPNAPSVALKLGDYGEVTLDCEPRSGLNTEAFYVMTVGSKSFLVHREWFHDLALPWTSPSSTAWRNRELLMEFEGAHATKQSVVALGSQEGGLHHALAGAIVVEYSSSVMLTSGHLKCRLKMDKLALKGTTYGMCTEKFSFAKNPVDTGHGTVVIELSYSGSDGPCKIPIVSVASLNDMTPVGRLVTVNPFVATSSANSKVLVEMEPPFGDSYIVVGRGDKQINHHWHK


Assays:
[1] = molecular target: T1, JEV SA14-14-2 envelope (E) protein on …; assay: ELISA on JEV virions captured by HMAF, concentration at half-maximal binding
[2] = molecular target: T1, JEV SA14-14-2 envelope (E) protein on …; assay: ELISA on JEV virions
[3] = molecular target: T1, JEV SA14-14-2 envelope (E) protein on …; assay: cell-based or functional assay
[4] = molecular target: T1, JEV SA14-14-2 envelope (E) protein on …; assay: ELISA on JEV virions (FIG. 4A), half maximum binding
DENV-4 (814669) virions = molecular target: T4, DENV-4 (814669) virions (dengue virus type 4, strain 814669, UniProt P09866 280-774); assay: ELISA, virion-coated plate
T4 construct: mature

[5] = molecular target: T2, Langat virus (LGTV) strain TP 21 virions; assay: ELISA, virion-coated plate
DENV-3 (H87) virions = molecular target: T5, DENV-3 (H87) virions (dengue virus type 3, strain H87, UniProt P27915 281-773); assay: ELISA, virion-coated plate
T5 construct: mature

[6] = molecular target: T1, JEV SA14-14-2 envelope (E) protein on …; assay: ELISA, virion-coated plate, Fab from ~100 µg/ml
[7] = molecular target: T1, JEV SA14-14-2 envelope (E) protein on …; assay: cell-based or functional assay
[8] = molecular target: T3, recombinant JEV N-terminal 80% E protein; assay: SPR, recombinant E immobilized
[9] = molecular target: T1, JEV SA14-14-2 envelope (E) protein on …; assay: cell-based or functional assay
[10] = molecular target: T3, recombinant JEV N-terminal 80% E protein; assay: SPR (Biacore 3000), recombinant E immobilized, Fab in flow
[11] = molecular target: T1, JEV SA14-14-2 envelope (E) protein on …; assay: cell-based or functional assay
[12] = molecular target: T1, JEV SA14-14-2 envelope (E) protein on …; assay: cell-based or functional assay
[13] = molecular target: T1, JEV SA14-14-2 envelope (E) protein on …; assay: cell-based or functional assay
[14] = molecular target: JEV strain Beijing (genotype III) E protein on virus (Japanese encephalitis virus, strain …); assay: cell-based or functional assay
[15] = molecular target: JEV strain JKT 9092 (genotype IV) E protein on virus (Japanese encephalitis virus, strain JKT …); assay: cell-based or functional assay
[16] = molecular target: JEV strain JE 1991 (genotype I) E protein on virus (Japanese encephalitis virus, strain JE …); assay: cell-based or functional assay
[17] = molecular target: JEV strain JE B 1034/8 (genotype II) E protein on virus (Japanese encephalitis virus, strain JE …); assay: cell-based or functional assay

T4 sequence (P09866 280-774 limits assumed): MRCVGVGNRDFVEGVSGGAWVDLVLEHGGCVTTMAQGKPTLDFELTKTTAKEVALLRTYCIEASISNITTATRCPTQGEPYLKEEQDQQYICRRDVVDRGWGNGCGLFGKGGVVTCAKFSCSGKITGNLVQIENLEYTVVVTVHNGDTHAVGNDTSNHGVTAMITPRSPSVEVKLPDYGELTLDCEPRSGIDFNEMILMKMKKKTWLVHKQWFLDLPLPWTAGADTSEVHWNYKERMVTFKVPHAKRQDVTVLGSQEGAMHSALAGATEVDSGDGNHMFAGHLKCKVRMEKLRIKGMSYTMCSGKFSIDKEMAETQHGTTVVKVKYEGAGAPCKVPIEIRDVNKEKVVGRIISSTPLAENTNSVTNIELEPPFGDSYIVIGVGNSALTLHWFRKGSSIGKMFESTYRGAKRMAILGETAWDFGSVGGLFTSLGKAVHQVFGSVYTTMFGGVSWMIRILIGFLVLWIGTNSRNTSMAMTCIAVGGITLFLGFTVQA

Row | Binder | Kd [1] | PRNT50 [3] | EC50 [4] | ELISA titer (1/log10 dilution) (DENV-4 (814669) virions) | binding result (DENV-4 (814669) virions) | binding result [5] | ELISA titer (1/log10 dilution) (DENV-3 (H87) virions) | binding result (DENV-3 (H87) virions) | ELISA titer (1/log10 dilution) [6] | PRNT50 titer [7] | PRNT50 titer [9] | Kd [10] | koff [10] | kon [10] | occupancy of accessible antibody sites on the virion at neutralization [11] | PRNT50 (µg/ml) of MAb 1 alone [12] | PRNT50 [13] | PRNT50 titer [14] | PRNT50 titer [15] | PRNT50 titer [16] | also measured
1 | Fab B2 (Fab, V domains shown) VH: VQLLEQSGSEVKKPGASVKVSCKASGYPFTDYAMSWVRQAPGQGLEYMGWIFTNSGNPTYAPGFAGRFVFSLDISVNTAYLHIDSLKPEDTAVYYCARGIVTPAASGDYFDSWGQGTLVTVSS VL: ELVLTQSPSSLSASIGDRVTITCRASQHISSWLAWYQQKPGKAPKPLIYAASSLKSGVPSRFSGSGSGTDFTLTISGLQPEDFATYYCQQYENSPVTFGGGTKVEIKR | 0.28 nM | 0.25 nM | ~0.5 nM | < 1 log10 reciprocal dilution | no binding | no binding | < 1 log10 reciprocal dilution | no binding | 4.2 log10 reciprocal dilution | 0.25 nM | 0.25 nM | 110 nM | 0.0046 s⁻¹ | 42000 M⁻¹ s⁻¹ |  |  |  |  |  |  | Kd [2]: 0.15 nM; fold faster off-rate than Fab A3 or E3 [8]: > 120 fold; fold weaker Kd than Fab A3 or E3 [8]: > 150 fold
2 | humanized MAb B2 (antibody, V domains shown) VH: VQLLEQSGSEVKKPGASVKVSCKASGYPFTDYAMSWVRQAPGQGLEYMGWIFTNSGNPTYAPGFAGRFVFSLDISVNTAYLHIDSLKPEDTAVYYCARGIVTPAASGDYFDSWGQGTLVTVSS VL: ELVLTQSPSSLSASIGDRVTITCRASQHISSWLAWYQQKPGKAPKPLIYAASSLKSGVPSRFSGSGSGTDFTLTISGLQPEDFATYYCQQYENSPVTFGGGTKVEIKR | 0.08 nM |  |  |  |  |  |  |  |  |  | 0.03 nM |  |  |  | ~28% | 0.005 µg/mL | 0.005 µg/mL | 0.02 nM | 2 nM | 0.02 nM | PRNT50 titer [17]: 0.02 nM
3 | Fab A3 (Fab, V domains shown) VH: EVQLLESGAEVKKPGSSVRISCKVSGTPYSSYVMNWVRQAPGQGLEWMGVFVPSLDRALYAQNFQGRLSITADTTTTYMELTSLKFEDTAVYYCATDFSVGWLRPLDRWGQGTLVTVSS VL: ELQMTQSPSSLSASVGDRVTITCRASQGISNYLAWYQQKPGKAPKLLIYYASRLESGVPSRFSGSGSGTDYTLTISSLQPEDFATYYCQQYNSNPFTFGPGTKVDIKR | 0.45 nM | 2.55 nM | ~10 nM | < 1 log10 reciprocal dilution | no binding | no binding | < 1 log10 reciprocal dilution | no binding | 4.7 log10 reciprocal dilution | 2.55 nM | 2.55 nM | 0.72 nM | 2.8e-05 s⁻¹ | 40000 M⁻¹ s⁻¹ |  |  |  |  |  |  | 
4 | humanized MAb A3 (antibody, V domains shown) VH: EVQLLESGAEVKKPGSSVRISCKVSGTPYSSYVMNWVRQAPGQGLEWMGVFVPSLDRALYAQNFQGRLSITADTTTTYMELTSLKFEDTAVYYCATDFSVGWLRPLDRWGQGTLVTVSS VL: ELQMTQSPSSLSASVGDRVTITCRASQGISNYLAWYQQKPGKAPKLLIYYASRLESGVPSRFSGSGSGTDYTLTISSLQPEDFATYYCQQYNSNPFTFGPGTKVDIKR | 0.15 nM |  |  |  |  |  |  |  |  |  | 0.2 nM |  |  |  | 45% | 0.04 µg/mL | 0.04 µg/mL | 0.2 nM | 0.07 nM | 0.04 nM | PRNT50 titer [17]: 0.04 nM
5 | Fab E3 (Fab, V domains shown) VH: EVQLLESGPGLVRPSQTLSLTCAVSGASISGPLSYWTWIRQSPGKKMEHIGSMFYSGNTYYNPSLKGRITMSVDTSRNQFSLNLNSVTVADTAVYFCARRRETELFGLPIDYWGQGILVTVSS VL: ELTQSPATLSVSPGERATLSCRASERISSSYLSWYQQKPGQAPRLLMYGTSTRATGIPARFSGSGSGTDFTLTISSLQPEDFAVYFCQQDYNLPWTFGQGTKLEIKR | 0.98 nM | 84.9 nM | ~100 nM | < 1 log10 reciprocal dilution | no binding | no binding | < 1 log10 reciprocal dilution | no binding | 4.2 log10 reciprocal dilution | 84.9 nM | 84.9 nM | 0.35 nM | 3.6e-05 s⁻¹ | 100000 M⁻¹ s⁻¹ |  |  |  |  |  |  | 
6 | humanized MAb E3 (antibody, V domains shown) VH: EVQLLESGPGLVRPSQTLSLTCAVSGASISGPLSYWTWIRQSPGKKMEHIGSMFYSGNTYYNPSLKGRITMSVDTSRNQFSLNLNSVTVADTAVYFCARRRETELFGLPIDYWGQGILVTVSS VL: ELTQSPATLSVSPGERATLSCRASERISSSYLSWYQQKPGQAPRLLMYGTSTRATGIPARFSGSGSGTDFTLTISSLQPEDFAVYFCQQDYNLPWTFGQGTKLEIKR | 0.31 nM |  |  |  |  |  |  |  |  |  | 0.93 nM |  |  |  | 66% | 0.09 µg/mL | 0.09 µg/mL | 0.71 nM | 0.36 nM | 0.21 nM | PRNT50 titer [17]: 0.14 nM
